Results from patent publication US20220204643A1 (published 2022).

Experiments:
[1] = biological target: T1, JPX transcript, XIST activator (human)
T1 construct: HuProt array protein; labelled _frag
T1 chain: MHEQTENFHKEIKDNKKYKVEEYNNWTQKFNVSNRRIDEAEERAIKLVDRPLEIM

LN608403.1_frag = biological target: T2, LN608403.1_frag (human)
T2 construct: HuProt array protein; labelled _frag
T2 chain: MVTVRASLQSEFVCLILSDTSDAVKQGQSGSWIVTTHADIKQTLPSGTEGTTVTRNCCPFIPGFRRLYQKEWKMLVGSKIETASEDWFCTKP

[2] = biological target: T3, SATB homeobox 2, transcript variant 2 (human, UniProt Q9UPW6 1-733); experiment: protein array
T3 construct: on protein array; also called SATB2
T3 sequence: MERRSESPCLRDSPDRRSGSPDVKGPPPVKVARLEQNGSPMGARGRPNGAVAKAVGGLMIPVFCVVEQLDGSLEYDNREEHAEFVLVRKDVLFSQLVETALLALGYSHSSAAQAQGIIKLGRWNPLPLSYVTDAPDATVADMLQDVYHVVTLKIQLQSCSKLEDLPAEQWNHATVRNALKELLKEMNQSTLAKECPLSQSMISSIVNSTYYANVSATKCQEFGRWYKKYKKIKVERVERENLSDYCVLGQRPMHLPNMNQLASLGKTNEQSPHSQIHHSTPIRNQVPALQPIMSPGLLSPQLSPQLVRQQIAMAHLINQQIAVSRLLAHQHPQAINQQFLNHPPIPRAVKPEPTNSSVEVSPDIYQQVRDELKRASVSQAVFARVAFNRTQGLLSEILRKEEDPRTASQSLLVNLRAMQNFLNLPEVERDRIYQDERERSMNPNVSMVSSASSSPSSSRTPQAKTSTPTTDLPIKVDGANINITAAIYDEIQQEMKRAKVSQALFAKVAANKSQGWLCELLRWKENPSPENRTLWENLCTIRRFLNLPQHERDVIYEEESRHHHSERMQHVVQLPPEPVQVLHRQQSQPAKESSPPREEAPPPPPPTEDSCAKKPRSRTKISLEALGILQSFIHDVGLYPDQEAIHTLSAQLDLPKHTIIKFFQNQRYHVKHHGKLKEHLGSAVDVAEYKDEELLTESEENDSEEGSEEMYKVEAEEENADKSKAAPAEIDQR

[3] = biological target: T4, ganglioside induced differentiation associated protein 1, transcript variant 2 (human, UniProt Q8TB36 69-358); experiment: protein array
T4 construct: on protein array; also called GDAP1
T4 sequence: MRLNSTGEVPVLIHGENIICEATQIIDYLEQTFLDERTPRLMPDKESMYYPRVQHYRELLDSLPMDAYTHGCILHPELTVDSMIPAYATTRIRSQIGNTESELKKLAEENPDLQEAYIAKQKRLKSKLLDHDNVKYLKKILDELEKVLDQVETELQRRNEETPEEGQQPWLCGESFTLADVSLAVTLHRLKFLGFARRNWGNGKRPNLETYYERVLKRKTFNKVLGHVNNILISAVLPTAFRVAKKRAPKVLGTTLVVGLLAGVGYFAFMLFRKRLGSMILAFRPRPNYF

zinc finger protein 8 = biological target: T5, zinc finger protein 8 (human, UniProt P17098 1-575); experiment: protein array
T5 construct: on protein array; also called ZNF8

[4] = biological target: T6, PNMA family member 5, transcript variant 2 (human, UniProt Q96PV4 1-448)
T6 construct: HuProt array protein, full-length recombinant from yeast; also called PNMA5

[5] = biological target: T7, zinc finger protein 326, transcript variant 1 (human, UniProt Q5BKZ1 1-582)
T7 construct: HuProt array protein, full-length recombinant from yeast; also called ZNF326
T7 sequence: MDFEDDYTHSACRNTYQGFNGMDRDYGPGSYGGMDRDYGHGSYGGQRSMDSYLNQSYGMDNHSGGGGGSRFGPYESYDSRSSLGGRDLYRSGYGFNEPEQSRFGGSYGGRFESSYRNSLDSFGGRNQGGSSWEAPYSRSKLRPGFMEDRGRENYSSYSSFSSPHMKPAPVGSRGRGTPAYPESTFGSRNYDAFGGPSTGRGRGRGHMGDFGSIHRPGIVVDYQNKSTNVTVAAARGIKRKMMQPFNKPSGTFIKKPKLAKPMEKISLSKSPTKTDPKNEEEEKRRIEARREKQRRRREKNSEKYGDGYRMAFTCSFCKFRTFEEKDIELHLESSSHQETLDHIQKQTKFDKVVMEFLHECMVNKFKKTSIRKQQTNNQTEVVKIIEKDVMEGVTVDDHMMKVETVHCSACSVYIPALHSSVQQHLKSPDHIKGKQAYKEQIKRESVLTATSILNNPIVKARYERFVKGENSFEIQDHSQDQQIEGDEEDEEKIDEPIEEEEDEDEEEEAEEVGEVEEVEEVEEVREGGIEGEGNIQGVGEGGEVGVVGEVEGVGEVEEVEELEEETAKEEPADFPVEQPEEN

[6] = biological target: T8, phospholipase C delta 1, transcript variant 2 (human, UniProt P51178 1-756)
T8 construct: HuProt array protein, full-length recombinant from yeast; also called PLCD1
T8 sequence: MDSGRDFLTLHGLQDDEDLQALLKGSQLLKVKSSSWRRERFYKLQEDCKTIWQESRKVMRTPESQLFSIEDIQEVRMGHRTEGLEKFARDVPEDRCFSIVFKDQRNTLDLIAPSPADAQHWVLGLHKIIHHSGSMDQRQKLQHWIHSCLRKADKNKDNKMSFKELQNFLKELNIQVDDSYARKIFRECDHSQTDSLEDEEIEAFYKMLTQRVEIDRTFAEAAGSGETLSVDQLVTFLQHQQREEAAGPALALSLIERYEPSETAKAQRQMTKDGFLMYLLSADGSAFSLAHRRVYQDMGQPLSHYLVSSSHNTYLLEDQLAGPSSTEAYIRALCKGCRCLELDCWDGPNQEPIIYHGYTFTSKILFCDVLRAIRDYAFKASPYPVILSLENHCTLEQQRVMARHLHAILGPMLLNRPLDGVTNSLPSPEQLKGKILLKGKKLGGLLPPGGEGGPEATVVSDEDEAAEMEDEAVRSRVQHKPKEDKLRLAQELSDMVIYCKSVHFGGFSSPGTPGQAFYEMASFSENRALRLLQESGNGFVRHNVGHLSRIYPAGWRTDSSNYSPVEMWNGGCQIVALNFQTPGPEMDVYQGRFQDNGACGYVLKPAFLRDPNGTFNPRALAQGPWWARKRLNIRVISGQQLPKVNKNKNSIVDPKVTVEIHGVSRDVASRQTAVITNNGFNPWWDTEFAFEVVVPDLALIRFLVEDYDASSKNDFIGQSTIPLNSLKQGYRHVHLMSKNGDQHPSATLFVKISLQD

[7] = biological target: T9, nudE neurodevelopment protein 1, transcript variant 1 (human, UniProt Q9NXR1 1-335)
T9 construct: HuProt array protein, full-length recombinant from yeast; also called NDE1
T9 sequence: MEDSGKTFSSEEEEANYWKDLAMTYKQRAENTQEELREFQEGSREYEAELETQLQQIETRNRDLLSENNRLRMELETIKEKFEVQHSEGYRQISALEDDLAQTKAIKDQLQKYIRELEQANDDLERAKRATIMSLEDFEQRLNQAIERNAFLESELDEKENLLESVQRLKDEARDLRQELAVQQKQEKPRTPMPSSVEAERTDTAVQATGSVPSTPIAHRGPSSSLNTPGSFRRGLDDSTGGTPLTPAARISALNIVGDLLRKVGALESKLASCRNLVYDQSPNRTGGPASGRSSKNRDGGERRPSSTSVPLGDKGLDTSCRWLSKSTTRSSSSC

[8] = biological target: T10, Egf like and emi domain containing 1, pseudogene (human, UniProt Q0D2K5 1-195)
T10 construct: HuProt array protein; pseudogene product; also called EGFEM1P
T10 sequence: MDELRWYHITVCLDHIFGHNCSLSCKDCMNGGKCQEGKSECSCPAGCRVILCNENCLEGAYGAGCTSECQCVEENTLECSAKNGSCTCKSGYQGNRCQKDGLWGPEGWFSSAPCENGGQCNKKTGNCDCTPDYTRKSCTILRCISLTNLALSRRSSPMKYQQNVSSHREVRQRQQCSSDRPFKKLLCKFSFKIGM

[9] = biological target: T11, nucleosome assembly protein 1 like 1, transcript variant 1 (human, UniProt P55209 2-388)
T11 construct: HuProt array protein, full-length recombinant from yeast; also called NAP1L1
T11 sequence: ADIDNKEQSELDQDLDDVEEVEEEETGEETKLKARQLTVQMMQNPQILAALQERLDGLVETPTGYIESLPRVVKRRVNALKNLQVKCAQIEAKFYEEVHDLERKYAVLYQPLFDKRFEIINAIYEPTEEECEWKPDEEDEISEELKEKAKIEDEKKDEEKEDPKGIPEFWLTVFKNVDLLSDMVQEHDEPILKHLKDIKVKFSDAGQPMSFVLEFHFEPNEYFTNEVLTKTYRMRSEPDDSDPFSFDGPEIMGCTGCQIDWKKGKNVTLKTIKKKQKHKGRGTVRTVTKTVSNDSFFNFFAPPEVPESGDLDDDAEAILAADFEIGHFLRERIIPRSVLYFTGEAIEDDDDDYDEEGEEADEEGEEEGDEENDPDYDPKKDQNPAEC

T5 sequence (P17098 whole entry): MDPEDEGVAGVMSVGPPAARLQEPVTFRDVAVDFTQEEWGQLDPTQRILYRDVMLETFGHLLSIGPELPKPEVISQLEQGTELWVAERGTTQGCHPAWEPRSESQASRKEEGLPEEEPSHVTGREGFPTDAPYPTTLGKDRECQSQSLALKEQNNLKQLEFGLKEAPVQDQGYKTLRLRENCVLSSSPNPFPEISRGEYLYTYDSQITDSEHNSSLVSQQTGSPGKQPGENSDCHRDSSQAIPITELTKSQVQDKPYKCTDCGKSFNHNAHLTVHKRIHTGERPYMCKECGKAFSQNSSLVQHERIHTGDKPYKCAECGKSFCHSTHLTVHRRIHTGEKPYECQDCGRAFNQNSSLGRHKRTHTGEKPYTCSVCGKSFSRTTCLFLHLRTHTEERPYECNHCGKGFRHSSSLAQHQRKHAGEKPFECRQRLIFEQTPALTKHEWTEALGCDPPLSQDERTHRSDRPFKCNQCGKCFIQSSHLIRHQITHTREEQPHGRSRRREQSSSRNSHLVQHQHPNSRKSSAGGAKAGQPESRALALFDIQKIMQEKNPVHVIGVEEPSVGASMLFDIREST
T6 sequence (Q96PV4 other isoform, or with tags, fused parts or gaps mutant limits assumed): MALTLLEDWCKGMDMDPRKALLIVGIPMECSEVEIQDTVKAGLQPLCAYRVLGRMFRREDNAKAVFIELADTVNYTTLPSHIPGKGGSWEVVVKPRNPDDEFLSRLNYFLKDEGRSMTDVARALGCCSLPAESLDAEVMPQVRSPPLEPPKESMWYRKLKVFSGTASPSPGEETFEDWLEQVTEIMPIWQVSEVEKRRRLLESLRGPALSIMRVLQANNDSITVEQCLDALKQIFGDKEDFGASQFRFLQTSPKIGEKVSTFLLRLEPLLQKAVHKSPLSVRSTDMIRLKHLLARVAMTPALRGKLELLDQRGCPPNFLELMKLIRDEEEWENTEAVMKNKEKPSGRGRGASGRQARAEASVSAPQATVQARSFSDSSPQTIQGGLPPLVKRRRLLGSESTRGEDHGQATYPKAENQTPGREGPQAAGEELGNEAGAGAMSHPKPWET

B1: TBRE1045 (antibody, V domains shown)
VH: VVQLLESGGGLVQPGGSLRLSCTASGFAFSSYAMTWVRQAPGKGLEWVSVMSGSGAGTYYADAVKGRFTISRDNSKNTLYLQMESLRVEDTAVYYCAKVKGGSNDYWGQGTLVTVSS
VL: PYVLTQPPSVSVAPGQTARITCGGNNIGSKSVHWYQQKPGQAPVMVVYADRERPSGIPERLSGSNFGNTATLTISRVEAGDEADYYCQVWDSNNDHREVFGGGTKLTVLG
notes: detected with anti-human IgG Fc
[1]
  binding result: binds
LN608403.1_frag
  binding result: binds

B2: TBRE1017 (antibody, V domains shown)
VH: QVQLVQSGAEVKKPGASVKVSCKASGYNFRDYYMHWVRQAPGQGLEWMGWINPNSGGTISAQNFQGRVTMTRDTSISTAYMEVNSLRSDDTAVYYCAVGMVTDGFEIWGQGTLVTVSS
VL: PYELTQPPSVSVSPGQTARITCSGDALPNENAFWYQQKPGQAPVLVIYEDIKRPSGIPERFSGSSSGTTVTLTISGVQAEDEADYYCQSVDITSTWVFGGGTKLTVLG
notes: VH/VL only
[2]
  binding result: binds
[3]
  binding result: binds
Zinc finger protein 8
  binding result: binds

B3: TBRE1039 (antibody, V domains shown)
VH: PVQLVQSGAEVKKPGSSVKVSCKASGGTFSSYAISWVRQAPGQGLEWMGGIIPIFGTANYAQKFQGRVTITADESTSTAYMELSSLRSEDTAVYYCARENWNSAGTTEWFDPWGQGTLVTVSS
VL: PYVLTQPPSVSVAPGKTARITCGGNNIGSKSVHWYQQKPGQAPVLVIYYDSDRPSGIPERFSGSNSGNTATLTISRVEAGDEADYYCQVWDSSSDHYVVFGGGTKLTVLG
notes: as for B1
[4]
  binding result: binds
[5]
  binding result: binds
[6]
  binding result: binds

B4: TCER1002 (antibody, V domains shown)
VH: QVQLQESGPGLVKPSETLSLSCTVSGASMNNYYWSWIRQSAGKGLEWIGRIYSSGDTDYNPSLKTRVTMSIDTSKNQFSLNLDSVTAADTATYYCARSFYDTLFYFENWGQGTLVTVSS
VL: DIQMTQSPSTLSASVGDRVTITCRASQSISVWLAWYQQKPGKAPKLLIYKASTLEAGVPSRFSGSGSGTEFSLTISGLQPDDFGTYFCQHYDSYPWTFGQGTKVEMK
notes: as for B1
[7]
  binding result: binds

B5: TBRE1036 (antibody, V domains shown)
VH: QVQLVESGGGVVQPGRSLRLSCAASGFTFSSYAMHWVRQAPGKGLEWVAVISYDGSNKYYADSLKGRFTISRDNSKDTLYLQVNSLRPEDTAVYYCARVNIAAAGTLDYWGQGTLVTVSS
VL: EIVLTQSPGTLSLSPGERATLSCRASQSVSSRYLAWYQQKPGQAPRLLIHGASSRATGIPDRFSGSGSGTDFTLTISRLEPEDFAVYYCQQYGSAWTFGQGTKVEIKR
notes: as for B1
[8]
  binding result: binds

B6: TCER1001 (antibody, V domains shown)
VH: EVQLVESGGGLVQPGRSLRLSCAASGFTFDDYAMHWVRQAPGKGLEWVSGISWNSGSIGYADSVKGRFTISRDNAKNSLYLQMNSLRAEDTALYYCAKDLLGFRDQRNYYGMDVWGQGTTVTVSS
VL: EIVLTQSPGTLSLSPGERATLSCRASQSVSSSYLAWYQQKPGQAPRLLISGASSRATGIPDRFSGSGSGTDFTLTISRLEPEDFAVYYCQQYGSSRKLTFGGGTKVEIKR
notes: as for B1
[9]
  binding result: binds
